For one protein, Km results are on record in publication PMC8403083.

Substrate in data set [1]: Nc1ncnc2c1ncn2[C@@H]1O[C@H](COP(=O)(O)O)[C@@H](O)[C@H]1O
Briefly: enzyme kinetics. It counts as biochemical, Homo sapiens.

Substrate in data set [2]: Nc1ccn([C@@H]2O[C@H](COP(=O)(O)O)[C@@H](O)[C@H]2O)c(=O)n1
Briefly: enzyme kinetics. The data set is classed as biochemical, Homo sapiens.

B1: CD73 (5ʹ-Nucleotidase) (Homo sapiens) (protein)
chain: WELTILHTNDVHSRLEQTSEDSSKCVNASRCMGGVARLFTKVQQIRRAEPNVLLLDAGDQYQGTIWFTVYKGAEVAHFMNALRYDAMALGNHEFDNGVEGLIEPLLKEAKFPILSANIKAKGPLASQISGLYLPYKVLPVGDEVVGIVGYTSKETPFLSNPGTNLVFEDEITALQPEVDKLKTLNVNKIIALGHSGFEMDKLIAQKVRGVDVVVGGHSNTFLYTGNPPSKEVPAGKYPFIVTSDDGRKVPVVQAYAFGKYLGYLKIEFDERGNVISSHGNPILLNSSIPEDPSIKADINKWRIKLDNYSTQELGKTIVYLDGSSQSCRFRECNMGNLICDAMINNNLRHTDEMFWNHVSMCILNGGGIRSPIDERNNGTITWENLAAVLPFGGTFDLVQLKGSTLKKAFEHSVHRYGQSTGEFLQVGGIHVVYDLSRKPGDRVVKLDVLCTKCRVPSYDPLKMDEVYKVILPNFLANGGDGFQMIKDELLRHDSGDQDINVVSTYISKMKVIYPAVEGRIK
In general, Km refers to the concentration of substrate that gives half-maximal velocity. For the protein B1, the Km in the data set “enzyme kinetics [1]” was 2.7 µM; in “enzyme kinetics [2]”, 45 µM.
